Experimental data taken from article PMC8943062.

Tests used:
[1] = molecular target: closed-gate E71V KcsA channel (chymotrypsin-truncated) (UniProt P0A334); experiment: crystal structure; KcsA-Fab complex (formed from purified channel in DM and Fab, excess Fab removed by SEC) concentrated to 15 mg/ml, crystallised in 50 mM magnesium acetate, 50 mM sodium acetate pH 5.5, 25% PEG 400 at 20 °C; one monomer in the asymmetric unit
[2] = molecular target: open-gate E71V KcsA channel (chymotrypsin-truncated, TM1 and TM2 cross-linked by C28-C118 disulfides) (UniProt P0A334); experiment: as above

Row | stoichiometry N [1] | stoichiometry N [2] | Substance
1 | 4 |  | closed-gate E71V KcsA channel (chymotrypsin-truncated) (from UniProt P0A334 1-160) (natural protein)
2 |  | 4 | open-gate E71V KcsA channel (chymotrypsin-truncated, TM1 and TM2 cross-linked by C28-C118 disulfides) (from UniProt P0A334 1-160) (natural protein)
